Laboratory results taken from patent publication US20230167200A1 (BIOTHEUS, published 2023).
Each block holds one binder with its values, some of them ahead of it.

Legend:
[1] = molecular target: T1, anti-PD-1/TIGIT/human serum albumin trispecific antibody Bi-72-73; assay: flow cytometry on CHO-hTIGIT cells
[2] = molecular target: T2, anti-PD-1/TIGIT/human serum albumin trispecific antibody Bi-70-71; assay: flow cytometry on CHO-hTIGIT cells
[3] = molecular target: T1, anti-PD-1/TIGIT/human serum albumin …; assay: BLI (Octet), antibody held on PD-1 sensor, human TIGIT 100 nM in solution
[4] = molecular target: T2, anti-PD-1/TIGIT/human serum albumin …; assay: as above
[5] = molecular target: T3, human PD-L2 expressed on CHO cells (CHO-hPD-L2 cells) (human, UniProt Q9BQ51 20-273); assay: flow cytometry on CHO-hPD-L2 cells
T3 construct: whole, on cells; also called CHO-KI-PD-L1/PD-L2
T3 sequence (looked up): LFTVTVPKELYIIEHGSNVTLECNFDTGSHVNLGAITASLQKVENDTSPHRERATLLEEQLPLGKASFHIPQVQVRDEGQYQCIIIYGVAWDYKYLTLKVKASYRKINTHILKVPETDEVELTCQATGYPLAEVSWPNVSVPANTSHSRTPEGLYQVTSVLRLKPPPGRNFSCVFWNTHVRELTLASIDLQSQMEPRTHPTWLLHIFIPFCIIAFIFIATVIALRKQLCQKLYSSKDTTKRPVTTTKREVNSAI

[6] = molecular target: T4, human PD-L1 expressed on CHO cells (CHO-hPD-L1 cells) (human, UniProt Q9NZQ7 19-290); assay: flow cytometry on CHO-hPD-L1 cells
T4 construct: whole, on cells; also called CHO-KI-PD-L1/PD-L2
T4 sequence (Q9NZQ7 19-290): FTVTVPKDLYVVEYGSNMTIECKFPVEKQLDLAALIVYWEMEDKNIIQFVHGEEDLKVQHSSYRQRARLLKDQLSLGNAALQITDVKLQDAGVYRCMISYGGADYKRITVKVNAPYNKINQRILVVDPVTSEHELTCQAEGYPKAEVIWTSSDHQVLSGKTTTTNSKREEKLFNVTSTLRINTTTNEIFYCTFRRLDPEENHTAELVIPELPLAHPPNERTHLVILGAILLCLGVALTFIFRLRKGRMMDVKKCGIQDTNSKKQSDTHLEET

binding result [1]: binds | binding result [2]: binds
B1: human TIGIT expressed on CHO cells (CHO-hTIGIT cells) (receptor, UniProt Q495A1 22-244, looked up)
chain: MMTGTIETTGNISAEKGGSIILQCHLSSTTAQVTQVNWEQQDQLLAICNADLGWHISPSFKDRVAPGPGLGLTLQSLTVNDTGEYFCIYHTYPDGTYTGRIFLEVLESSVAEHGARFQIPLLGAMAATLVVICTAVIVVVALTRKKKALRIHSVEGDLRRKSAGQEEWSPSAPSPPGSCVQAEAAPAGLCGEQRGEDCAELHDYFNVLSYRSLGNCSFFTETG
notes: whole, on cells; also called CHO-hTIGIIT

binding result [3]: binds | binding result [4]: binds
B2: human TIGIT (ACROBiosystems) (receptor, UniProt Q495A1 22-141, looked up)
chain: MMTGTIETTGNISAEKGGSIILQCHLSSTTAQVTQVNWEQQDQLLAICNADLGWHISPSFKDRVAPGPGLGLTLQSLTVNDTGEYFCIYHTYPDGTYTGRIFLEVLESSVAEHGARFQIP
notes: Bought protein

binding result [5]: binds | binding result [6]: binds
B3: anti-PD-L1/PD-L2 bispecific antibody Fc fusion protein Bi-203-204 (bispecific antibody, human IgG1, kappa, L234A L235A, V domains shown)
V domain 1: QVQLVESGGGLVKPGGSLRLSCAASGHTFIIYAIGWFRQAPGKGLEFVATINWSGSMTNYADSVKGRFTISRDNAKNTVYLQMNSLKPDDTAVYYCAAYVGATISTAHSRYDYWGQGTLVTVSS
V domain 2: EVQLVESGGGLVQPGGSLRLSCAASGRTFSSMTIGWFRQAPGKGLEFVSGIGWTSGLTVYADSVKGRFTISRDNAKNSMYLQMNSLRAEDTAVYYCAADSMNRGQFDYWGQGTLVTVSS
